Measurements from paper PMC4457900, “Preclinical Pharmacokinetic Studies of the Tritium Labelled D-Enantiomeric Peptide D3 Developed for the Treatment of Alzheimer´s Disease” (PLoS ONE, 2015).
Entries after “also recorded” stand apart in the source; their conditions may differ.

Legend:
[1] = biological target: T1, human serum albumin (HSA) (Homo sapiens, UniProt P02768); assay: Plasma protein binding, TRANSIL XL kit, HSA; type: in vitro ADME; settings: 5 μM D3 (with 3H-D3) in PBS, LSC of supernatant, above detection limit of the kit, n = 2
T1 construct: purchased Sovicell GmbH, Leipzig, Germany
Experimental: Plasma protein binding was estimated by incubation of D3 with varying concentrations of protein using TRANSIL^XL binding kits (Sovicell GmbH, Leipzig, Germany). KD values were determined by titrating a constant drug concentration against different concentrations of human serum albumin (HSA) and α1-acid glycoprotein (AGP). Experiments were performed as recommended for the kit. To obtain the desired D3 stock solution of 80 μM, non-radioactively labelled D3 was dissolved in PBS and 5% ^3H-labelled D3 solution was added for detection purposes. A final concentration of 5 μM D3 was applied in the assay. After incubation and centrifugation 15 μl supernatant were taken and scintillation cocktail was added. This was done in triplicate. Radioactivity was then quantified using liquid scintillation counting. After measuring the disintegrations per minute (dpm) of the supernatant containing the unbound peptide, the D3 fraction bound to the titrated protein was calculated and plotted against the protein concentrations. […]
For bioavailability determination, the unbound fraction of D3 (fu) was calculated using the equation below: fu=100*CD3−KD−Cphysiol/2+KD*CD3+(CD3−KD−Cphysiol/2)^2/CD3 (1) For very low D3 concentrations in blood (CD3), Eq (1) can be simplified by Eq (2), where the unbound fraction of D3 can be calculated independently of the applied D3 concentration. […]

[2] = Proteolytic stability in mouse plasma (TLC, autoradiography); type: in vitro ADME; settings: freshly prepared mouse plasma, 37°C, 1 μCi (approx. 0.08–0.8 μg) peptide with 1 μl plasma, D3 up to 2 days, L-form 0 and 60 min, 3H-autoradiography
Experimental: In order to study the proteolytic stability of peptides in biological extracts, tritium labelled peptides were incubated with liver microsomes (pooled from mouse (CD-1), Sigma-Aldrich), freshly prepared mouse plasma or extracts of brain, liver and kidney at 37°C for different time periods (from 0 min to 2 days). 1 μCi (approx. 0.08–0.8 μg) radioactive labelled peptide was mixed with 1 μl microsomes stock solution, plasma or organ extracts, respectively (in great excess to peptide). Mixtures containing tritium-labelled peptides were applied onto HPTLC Silica Gel 60 plates (OMNILAB, Essen, Germany) for thin layer chromatography (TLC) with a mobile solvent (2-Butanol/Pyridine/Ammonia(28%)/Water(39/34/10/26)). After development, a phosphor imaging plate for ^3H-autoradiography (FUJIFILM, Tokyo, Japan) was exposed to the TLC plates for 3 days. Images were acquired with a BAS reader and AIDA software (Raytest, Freiburg, Germany). Retardation factor (Rf) of each substance was defined as the ratio of the migration distance of the centre of a separated spot to the migration distance of the solvent front.

Substance	Kd [1] [mM]	proteolytic degradation in plasma [2]
D3: fully D-enantiomeric peptide identified by mirror-image phage display for binding to Aβ (1–42) (RPRTRLHTHRNR; all residues are D-amino acids (rprtrlhthrnr); tracer form carries 4,5-3H-D-Leu at position 6)	> 1.4	–
RPRTR-(4,5-^3H-Leu)-HTHRNR [3H-(L)-D3, tritium labelled L-form enantiomer of D3, RPRTR-(4,5-3H-Leu)-HTHRNR]	–	significant degradation already after 60 min; also recorded: Obvious proteolytic degradation
